The nature of this series: yeast display, Sf9 membrane polyspecificity reagent, FACS + sequencing; frameworks hold sequencing errors. The gist of the method:
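Sorting gates, low and high (top ~1%), were placed on anti-HA fluorescence to track expression and on streptavidin fluorescence to track reagent binding. A clone's polyreactivity label is taken from the gate it came out of. The reagent was 10% biotinylated, detergent-solubilized Sf9 membrane, applied for 1 hour at 4 °C to galactose-induced yeast display cells.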
With “QFQLVESGGGLVQAGGSLRLSCAASGLTIYSYSMGWYRQAPGKERELVAAITWRGGSTYYADSVKGRFTISRDHAKNTDYLQMNSVKPEDTALYYCAADPGPYGYYYWGQGNQVTVSS”, the “polyreactivity (PSR sort gate)” value is “low polyreactivity”. The result for “QFQLVESGGGLVQAGGSLRLSCAASGRIFASIGMGWYRQAPGKEREFVAAINRSGGSTYYADSVKGRFTISRVNAKNSVYLQMNSLKPEDTAVYYCNKDYLYSYLWGWKVYSYDYWGQGTQVTVSS” reads “low polyreactivity”; that for “QFQLVESGGGLVQAGGSLRLSCAASGRIFEDSMGWYRQAPGKERELVAAIRWSGGGTYYADSVKGRFTISRDNAKNTVYLQMNSLKPEDTAVYYCATPGTGSVELYGYWGQGTQVTVSS”, “low polyreactivity”.

Regarding “QFQLVESGGGLVQAGGSLRLSCAASGRIFFIYAMGWYRQAPGKERELVAGINRTGGSTNYADSVKGRFTISRDNAKNTVYLQMNSLKPEDTAVYYCAADIYDGGFDYWGQGTQVTVSS”, the “polyreactivity (PSR sort gate)” value is reported as “low polyreactivity”. The value for “QFQLVESGGGLVQAGGSLRLSCAASGRIFFRNAMGWYIQAPGKETELVADNTNGGSTNYADSEKGRFTISRDNAKYTVYLQMNSLNPEDTAVYYCAADTLGVYDGDYWGQGTQVTVSS” was “low polyreactivity”.

Regarding “QFQLVESGGGLVQAGGSLRLSCAASGRIFGPYAMGWYRQAPGKERELVASISGGGSTNYADSVKGRFTISRDNAKNTVYLQMNSLKPEDTAVYYCAADVYYQYWGWWPYDYWGQGTQVTESS”, the “polyreactivity (PSR sort gate)” value is “low polyreactivity”. The value for “QFQLVESGGGLVQAGGSLRLSCAASGRIFGVYARGWYRQAPGKERELVAAISSTGGSTYYADSVKGRFTISRDTAKNTVYLQMNSLKPEDTAVYYCEYDYWGQGTQVTVSS” was “low polyreactivity”; that for “QFQLVESGGGLVQAGGSLRLSCAASGRIFVPNGMGWYRQAPGKERELVAVIDWSGGSTYYADSVKGRFTISRDNAKNTVYLQMNRLKPEDTAVYYCNAYPYDESDYWGQGTQVTVSS” was “low polyreactivity”. The result for “QFQLVESGGGLVQAGGSLRLSCAASGRIFVRYAMGWYSQAPGKERQLVAAISKSGGSTYYADSVKGRYTISRDNAKNTVYLQMNSLNPEDTAVDYCAADYTGFFPDGSDVDFDYWGQGTQVTVSS” reads “low polyreactivity”; that for “QFQLVESGGGLVQAGGSLRLSCAASGRTFGRYTMGWYRPAPGKEREFVARINWNGGGTYYEDSVKGRFTISRDNAKNTVYLQMNSLKPEDTEVYYCNARKRGARFILGYDYSGQGTQVTVSS”, “low polyreactivity”; that for “QFQLVESGGGLVQAGGSLRLSCAASGRTFGTYAMGWYRQAPGKEREVVAAISTRGGRTFYADSVKGRFTISRDNAKNTVYLQMNSLKPEDTAVYYCAARGTDPGHKYEYWGQGTQVTVSS”, “high polyreactivity”. The result for “QFQLVESGGGLVQAGGSLRLSCAASGRTFRSNTMGWYRQAPGKEREFVAVITYSAGSTYYADSVKGRFTISRDNAKNTVYLQMNSLKPEDTAVYYCAARVSWWPYDWYGYWGQGTQVTVSS” reads “high polyreactivity”; that for “QFQLVESGGGLVQAGGSLRLSCAASGRTFTSNAMGWYRQAPGKERELVAAIDDGGSTNYADSVKGRFTISRDNAKNTVYLQMNSLKPEDTAVYYCATGYWELRYDYWGQGTQVTVSS”, “low polyreactivity”. Take “QFQLVESGGGLVQAGGSLRLSCAASGRTFYDNTMGWYRQAPGKERELVAAITRNGGSTYYADSVKGRFTISRDNAKNTVYLQMNSLKPEDTAVYYCAAEGPSHRLNVRLVKGSDSWGQGTQVTVSS”: the “polyreactivity (PSR sort gate)” value is “low polyreactivity”.

For “QFQLVESGGGLVQAGGSLRLSCAASGRTISHNVMGWYRQAPGKEWELVAAISRNGGRTYYADSVKGRFTISRDNAKNTVYLQLNSLKTEDTAVYYCAAEAYPEYYYWGLGTQVTVSS”, the “polyreactivity (PSR sort gate)” value is on record as “high polyreactivity”.

For the sequence “QFQLVESGGGLVQAGGSLRLSCAASGRTLSSYDMGWYRQAPGKERELVAAISRGGSTYYADSVKGRFTISRDNAKNTVYLQMNSLKPEDTAVYYCAASFYGGYWGYDYWGQGTQVTVSS”, the “polyreactivity (PSR sort gate)” value is listed as “high polyreactivity”. The result for “QFQLVESGGGLVQAGGSLRLSCAASGSIFGYYDMGWYRQAPGKERELVAAISWSGDTTYYADSVKGRFTISRDNAKNTVDLQMNILTPEDTAVYYCSAEFYDWLGGMGYWGQGTQVNVSS” reads “low polyreactivity”; that for “QFQLVESGGGLVQAGGSLRLSCAASGSIFPNYAMGWYRQAPGKDRELVAVITQRGGRTYYADSVKGRFTISRDNAKNTVYLQMNSLKPEDTAVYYCAASYRGVPEYDSWGQGTQVTVSS”, “low polyreactivity”.

As to “QFQLVESGGGLVQAGGSLRLSCAASGSIFRGTAMGWYRQAPGKERELVAAINKSGGSTYYADSVKGRFTISRDNAKNTVYLQMNSLKPEDTAVYYCAARGYFWSSYKYDYWGQGTEVTVSS”, the “polyreactivity (PSR sort gate)” value is given as “high polyreactivity”.

“QFQLVESGGGLVQAGGSLRLSCAASGSIFSVYTKGRYRQAPGKERELVAAISTGGGSTYYADSVKGRFTISRDNAKNTVYLQMNSLKPEDTALYYCATDYGWAPSYWYDSCGQGTQVTVSS”: the “polyreactivity (PSR sort gate)” value is “low polyreactivity”.

As to “QFQLVESGGGLVQAGGSLRLSCAASGSIFSYYAMGWYRQAPGKERELVAGITWSGGRTYYADSVKGRFTISRDNAKNTVYLQMNSLKPEDTAVYYCAAAVKRALDYWGQGTQVTVSS”, the “polyreactivity (PSR sort gate)” value is on record as “high polyreactivity”. The result for “QFQLVESGGGLVQAGGSLRLSCAASGSIFTLYDMGWYRQAPGNERELVAAISSGGGSTYYADSVKGRFTISRDNAKNTVYLQMNSLKPEDTAVYYCAARNRRAKYGDWGQGTQVTVSS” reads “high polyreactivity”; that for “QFQLVESGGGLVQAGGSLRLSCAASGSIFVTNAMGWYRQAPGKERELVAAISSGGNTNYADSVKGRFTISRDNAKNTVYLQMNSLKPEDTAVYYCAKDPDKVDFVDMDYWGQGTQVTVSS”, “low polyreactivity”. The value for “QFQLVESGGGLVQAGGSLRLSCAASGSIFYRYAMGSDRQAPGKERELVAAISTGGGSTKYADSVKGRFTISRHNAKNTVYLQMNSLKPEDTAVYYCAASRAVTQYSGGGYGGQGTQVTVSS” was “high polyreactivity”; that for “QFQLVESGGGLVQAGGSLRLSCAASGSIFYYNAMGCYRQAPGKEREVVAAISWSGGSTYYADSVKGRFTISRDNAKNTVYLQMNSLKPEDTAVYYCNAVGWYTYFYGSRKYNSWGQGTQVTVSS” was “low polyreactivity”; that for “QFQLVESGGGLVQAGGSLRLSCAASGSILVPNDMGWYRQAPGKEREFVAAITESDGSTYYADSVKGRFTISRDNAKNTVYLQMNSLKPEDTAVYYCASDSTGVTFVHFDYWGQGTQVTVSS” was “low polyreactivity”. The result for “QFQLVESGGGLVQAGGSLRLSCAASGSTFDPNAMGGYRQAPGKERELVASITSRGGSTYYADSVKGRFTISRDNAKNTVYLQMNSLKPEDTAVYYCAAVGGATYSWNGYSWYPWHNYWGQGTQVTVSS” reads “low polyreactivity”. For the sequence “QFQLVESGGGLVQAGGSLRLSCAASGSTFGTYAMGWYRQAPGKERELVAAISSGGSTYYADSVKGRFTISRDNAKNTVYLQMNSLKPEDTAVYYCAAGYYWYVWGFGYWGQGTQVTVSS”, the “polyreactivity (PSR sort gate)” value was “low polyreactivity”. The result for “QFQLVESGGGLVQAGGSLRLSCAASGSTFSNYAMGWYRQAPGKERELVAAISSRGGSTYYADSVKGRFTISRDHAKNTVNLQMISLKPEDTAVYYCATYYVYKLYYWGQGTQVTVSS” reads “high polyreactivity”; that for “QFQLVESGGGLVQAGGSLRLSCAASGSTFWTNAMGWYRQAPGKERELVAVISRGGSTNYADSVKGRFTISRDNEKNTVYLQMNSLKPEDTAVFYCAAASYLYGRYYYWGQGTQVTVSS”, “high polyreactivity”. The result for “QFQLVESGGGLVQAGGSLRLSCAATGSIFHYYAMGWYRHAPGKERELVAAINSSGGSRSYYADSVKGRFTISRDNAKNTVFLQMNSLKPVDTAVYYCAAEYRVVWRAYDYWGKGTQVTVSS” reads “low polyreactivity”; that for “QFQLVESGGGLVQAGGSLRLSCADSGIIFRDNAMGWYRQAPGKERELVATIRRRGGGTYYADSVKGRFTISRDNAKNTVYLQMNSLKPEDSAVYYCAARVIKSSHDYDYWGQGTQVTVSS”, “low polyreactivity”. The result for “QFQLVESGGGLVQAGGSLRLSCADSGSIFLLYVMGWYRQAPGKERELVAAISSGGSTNYADSVKGRFTISRDNAKNTVYLQMNSLKPEDTAVYYCNAVAVPQGVKLYDYWGQGTQVTVSS” reads “low polyreactivity”. As to “QFQLVESGGGLVQAGGSLRLSCADSGSTFFNNAMGWYRHAPGKERELVAAITSSGGSTYYADSVKGRFSISRDNAKNTVYLQMNSLKPEDTAVYYCNKKSALYRRYDYWGQGTQVTVSS”, the “polyreactivity (PSR sort gate)” value is given as “low polyreactivity”. The result for “QFQLVESGGGLVQAGGSLRLSCASSGSTFGYNAMGWYRQAPGKESELVAAISYSGGSTSYADSVKGRFTISRDNAKNTVYLQMNSLKPEDSAVYYCASDSYSQYSSQALEGFGYWGQGTQVTVSS” reads “low polyreactivity”; that for “QFQLVESGGGLVQAGGSLRLSSAASGFTFVYYVMGWYRQAPGKERELVAAINAGGGSTYYADSVKGRITISRDNAKNTVYLQMYSLKPEDTAVYSFNARVRVRWGRNWSSYYYWGQGTQVTVSS”, “high polyreactivity”. For the sequence “QFQLVESGGGLVQAGGSLRLSYAASGRTFSSYAMGWYRQAPGKERELVAAITKRGGNTYYADSVKGRFTISRDNAKNTVYLQMNSLKPEDTAVYYCAAGWERFRNYNYWGQGTQVTVSS”, the “polyreactivity (PSR sort gate)” value is recorded as “high polyreactivity”.

Turning to “QFQLVESGGGLVQAGGSLRLTCAASGNIFADYAMGWYRQAPGKERELVAAISRGGITSYADSVKGRFTISRDNAKNTVYLQMNSRKPEDTAVYYCATVRYDVYDSLGFGYWGQGTQVTVSS”, the “polyreactivity (PSR sort gate)” value is on record as “low polyreactivity”. The result for “QFQLVESGGGLVQAGGSLRLTCAASVSTFSSYVMGWYRQAPGKDRELVAAISSIGGSTYYADSVKGRFTISRDNAKTNDYLQMNSLKPEDTAVYYCAAEPPGSTYEGGYWGQGTQVTVSS” reads “low polyreactivity”; that for “QFQLVESGGGLVQAGGSLRSSCAASGFIFREYAMGWYRQAPGKERELVAAISTSGGDTYYADSVKGRFTISRDNAKNTVYLQMNSLKPEDTAVYYCAAEYDGYWDSNRGNYWGQGTQVTVSS”, “low polyreactivity”; that for “QFQLVESGGGLVQAGGSLSLSCAASGSTFSFNARGSYRQAPGKERELVAAITSGGSTYYADSVKGRFTISRDNAKNTVYLQMNSLKPEDTAVYYCAAAWAYGFGTRRYYWGQGTQVTVSS”, “high polyreactivity”.

The values above are taken from the nanobody polyreactivity screen of Harvey et al. (2022).
